# Results as given in a protein production outcome set (Wang et al. 2014).
# Assay: label from the status in PepcDB records
row,Sequence,protein production
1,MSMNQFRTMEEEKQDGGELFHTIEVAKVDRNNVSQPPPAATAALLEVPGDELNLIPPLNFSMVDNGIFRSGFPDSANFSFIKTLGLRSIISLCPEPYPENNMQFLKSNGISLFQFGIEGSKSKEPFVDILDQKIREALKVLLDEKNHPLLIHCKRGKHRTGCLVGCMRKLQKWCITSILDEYKRFAAAKARVSDQRFLESFDVSGLKHTPMSFSCSNR,failed
2,PKAPVTGYVRFLNERREQIRTRHPDLPFPEITKMLGAEWSKLQPAEKQRYLDEAEKEKQQYLKELWAYQQSEAYKVCTE,not failed
3,MKLIRLIASPILMYVLAGVYALVLAIATFVENSSGPAVAREYFYYAPWFILLQLLQAVNLLAMFLQGGYFKRISKGSLIFHGALVFIWLGAAVTHYAGVTGIMHIREGETVDRMMRDEGAGMGNASLPFSVTLDDFRLKRYPGSHSPMSYESDLVIKKENEAPLQATVRMNKVIEVDGYRLFQSSFDPDEQGTVLSVSYDRPGMQITYIGYFLLFAGFVLTLFSKKSRFGRLRRELGEMKKNAPFCLLLFLGLSGALGTQASYAQETLSSSQLPCIPAPHARKFGSLVLLNPNGRLEPVNSYTSAILRKLYGADKLNSINSDQFFLNLLAFPDEWGGYPFIKVDNKDILQRFGRDGKYIAWQDVFDADGNYVLTDEVNAIYAKSASERKRMDSDLLKLDESVNIVYRIMQHQLLPLFPDENDVQGKWYSAGDEQTVFHDKDSLFVSKIMDWYIYELGNGVRTNNWKEADKIVDMMHIFQQAKSKTPAIDNQRVKAELLYNQLNLFFWCRLAYLILGGILLFIACGEIIADFKWGSRLSSILIVLLIAAFLAHTTGVLLRWYISERAPWANAYESMICTSWLLVGGGLLFARRFRILPALAGLLGGIMLFVAGLNHLNPEITPLVPVLQSYWLMSHVAIIMIGYVFFALCALTGLFNLILMNLLSATNRVKLLFRIREFTLLNEMAMILGLFFMTAGTFLGAIWANVSWGRYWGWDPKETWALISIVVYALVLHIRFIPLLKGKTTWCYNLLSVVSILSIIMTWFGVNYYLSGLHSYGKTEGGDLLLWIWGAGLCVVLALALFARRRLKKYS,failed
4,MSEPVQLRQHGNAAVAMPLDALLAARTVWRAGQGRATVNGGESTGHAALDALLPDGGWPRRALTELLLPAHGIGEIALLLPTLARMTARGSRVVLVAPPFIPYAPAWQAGGVVLEHLEVVQAEPRAALWAFEQCLRSGACAAVLGWPQTGDARALRRLQVAADSGNCCAFALRDRRHAVNASPAALRLEFLPERDAWQVRKCRGGQVPSQPLRLAH,failed
5,MFVFIPLFTIFILLAGGYFAKRIGVLKQKQARTFLDFAIIFALPCLIFDKAYHLNFDFSLIIFIFIGLFSCILAAFFAILIGKVFHFSKVTLVSMFLLSCFGNTIFVGMPIVAGIFNDPQFSAEVIFYDALATTLPISLFGPFILSLGNGEKVSLLANVKKILSFPPFLALLFGFLCKLITLPEFIFSPIRLFGASATPVALFAIGLGLGFMAIKTSYKPTIVVIFTKMILAPLFFVFCLKIFNLELKDSTIVAIIESAAPTMTLAGAMVMKAKLDSNLAVSAVAFGVLFAFVSMPILIWTLL,failed
6,MWLSEFEIVLRDRVIPNGAVRIEDGRIAEIRDRPVAHADIDGGGRLLLPGFIDMHGDMVEREVEPRIGVHVPMRIGIAELDKKLASCGITTAYAALSFIGASVTSGVLRSEDHTTEIIDTIAGMKDHLLVDHRTHARFEVTFTPAIPTLQKLMDAGRLDLISLMDHTPGQGQYRDVELYIARIAKERGMSVAAASEVVGKRMAGREGQGNVLNALQDLSARARAAGIVLASHDDDTLEKVELVHGLGAALSEFPVTLEAAQEARRLGMHTAMGAPNALRGESYSGNLSARQAYQAGLLDMLASDYHPASILPAVLGLAELRGDGLAAAAALTSANPANALGLTDRGAVEPGLLADFVVADRYPVPRVRATFRAGRMIYGDGTLALAGKAERLGPVAAERLPAA,failed
7,MLDKLTVWIENHLAGPMAKIANQRHLRAVRDGIIATLPLIIVGSFFLIIAFPPLPESWGITQFLTSNAATILLPYRMTMYIMALYATFGIGASLAKSYNLDQVSGGILATIAFLLTLVPVAIPEEASKAAGVSGFVLPMANLGGAGMFVGIVTSIIAVEIYRVTDKSKFKITMPDNVPPAVARSFESLTPTLIVMLLIGSITYYLGFDWHTFVGNLVGPLVQAADSLLSVLLLVFLTTFFWFFGIHGASIVGSLARPLWLQLLEENTTAKAAGEALPRIAAEPFYQWFIWIGGAGATIGLAILLAFRAKSEYGSKLGKAILAPSIFNINEPVIFGVPIVLNPILMIPFIFAPMVLATIAWFATKLGLVSEVVFTAPWTLPGPIGAFMATGGDWRAAVLNIVLILVAILIYYPFFVAYDKNELAKEQGKQIEE,failed
8,MMKNKVNIDTIIYLVLIITSLIFIYAGSFLFEEGSFIGNRGNNRTVDADTATDRNKPFPVVHKAVSTEINGIKQKINILEIDLSSGGVKIKPALAFDTIYGFQSLKDIAINNNAYAAVNAGFFYSYGEPSGMVVIDGKVYTKSTGKYPVFVVQGKNAFLSEIKSNIWILHGNRRIAADDINREGKPGETVVYTPVFGPTNRADKLHTSYIVENNRVARKFRGDTECKIPSDGMVITFYEPISSEEKFEVGDWIGIDIDPDFGPGFQAYECGSWLVRDGQVVAVDRDDWVGLLTNRDPRTAIGVKHDGKVVLVTVDGRQPGYSVGLSSRELAGYLLTLGIKDAAMLDGGASTQMIVQNKTVNRLPARERMLGGGIVVVVDEDL,failed
9,METYPITVGGVTRHVPLIEPLPGRRIPLVEFLGDPEFTRAAAEALRPLVPKEAEILFTTETSPIPLTHVLAEALGLPYVVARRRRRPYMEDPIIQEVQTLTLGVGEVLWLDRRFAEKLLNQRVVLVSDVVASGETMRAMEKMVLRAGGHVVARLAVFRQGTPGLAVDTVAELPVL,not failed
10,MSNVRVLATDLAFPEGPVVMPDGSVVLVEIRAQQLTRVWPDGRKEVVAKVPGGPNGAALGPDGKMYICNNGGFGWFPSRGTMMPGAPAPHEYIGGSIQRVDLQSGEVETLFDKCGEHPLKGPNDLVFDKHGGLWFTDLGKRRARDMDVGAAYYIKPGMTEITEQVFGTLPLNGIGLSPDEATMYAAETPTGRLWAFDLSGPGEVKPRDVIYRGEKGKPICGLGGYQMFDSLAVEASGNVCVATLVSGCISVIAPDGTLVEQVPTGDRVTTNIAFGGPDLKTAYITLSGKGELIAMDWSRPGLPLNFLNKLEHHHHHH,failed
11,MDYLNYEEIQSLKNSLLHNIKHTYISRYMILTALYTGMRPGEIAVLTWSDIDFKNQTININKSYNHDKGRVDNYDSSEIDKSTKNTNSVRIIKVDKKFLDILSQLKQNDHEKIFIGKDGTIPTSNAVNKVWRKQLEKLNIDKPSFHFHSVRHTHVALLPFKGVPLYAISKRLGHANMSTTAKKYAYMLDELKQQVRLEHHHHHH,not failed
12,MQGIPLGSEYFEKLDPYFLVCIAKEYLLFCPKQPRLPGQIVSPLLKQVAVILNPVVKAAPALIDPLYLMAQVRYYSGELENAQSILQRCLELDPASVDAHLLMCQIYLAQGNFGMCFHCLELGVSHNFQVRDHPLYHLIKARALNKAGDYPEAIKTLKMVIKLPALKKEEGRKFLRPSVQPSQRASILLELVEALRLNGELHEATKVMQDTINEFGGTPEENRITIANVDLVLSKGNVDVALNMLRNILPKQSCYMEAREKMANIYLQTLRDRRLYIRCYRELCEHLPGPHTSLLLGDALMSILEPEKALEVYDEAYRQNPHDASLASRIGHAYVKAHQYTEAIEYYEAAQKINGQDFLCCDLGKLLLKLKKVNKAEKVLKQALEHDIVQDIPSMMNDVKCLLLLAKVYKSHKKEAVIETLNKALDLQSRILKRVPLEQPEMIPSQKQLAASICIQFAEHYLAEKEYDKAVQSYKDVFSYLPTDNKVMLELAQLYLLQGHLDLCEQHCAILLQTEQNHETASVLMADLMFRKQKHEAAINLYHQVLEKAPDNFLVLHKLIDLLRRSGKLEDIPAFFELAKKVSSRVPLEPGFNYCRGIYCWHIGQPNEALKFLNKARKDSTWGQSAIYHMVQICLNPDNEVVGGEAFENQGAESNYMEKKELEQQGVSTAEKLLREFYPHSDSSQTQLRLLQGLCRLATREKANMEAALGSFIQIAQAEKDSVPALPALAQAYVFLKQIPKARMQLKRLAKTPWVLSEAEDLEKSWLLLADIYCQGSKFDLALELLRRCVQYNKSCYKAYEYMGFIMEKEQSYKDAVTNYKLAWKYSHHANPAIGFKLAFNYLKDKKFVEAIEICNDVLREHPDYPKIREEILEKARKSLRP,failed
13,MLIEILEFASILALVAVLTLTVMLQDIFFIDINKQYTETRIGTIIFSIRMLFGAWVIFVTETTIIAISKVTAIQLIILLLIWVCSKYVQKTRENWLITIVAFVIYGVGTYIYIQFAFKGY,failed
14,MTTESAWTRWPSREALGREGLSRPRRMLAWTVRALVLAMLLWGAFSSSHVHGWGAVAAAAGVLLAAGASWAFFRTTLQHRLWPSLALIAVLLGIAIVAQTAGFQVPALVIWCGCAVSALERLPLAAALPVTTAALAAYAAVDNDVWLTTAATIAGLFLAGYVLRLDAEARGSAQRLLAQERAARAAETQSAALAERARIAREIHDVLAHSLSAQLVHLEAARLLIERGADREQILGRVVAARGMAREGLAETRQALSALRGEISPLEDFLSELVAFEDGADVTVSGERRLLTAEASQAVRRVAQEALTNVRKHAPGAKVQVKLEYGERQVTLHVRDSGGKPGDLTGSGAGYGLLGMRERAELLGGSLEAGREEKGFVVTLKVPA,failed
15,ADVSSSDLATLRRLTNEFQAELATLGTRVDDLEARTSELENQQFSTTTKLNGEAIFSISGATGGEPEGNDAQITFNNRLRLNLTTSFTGKDALITGLQAYNFSAGKSITGTGNVAETLFPNDASILGDSMTNLAWEPQFAGLNPQNLQPSCGNNSLCLYKLLYVRPITDKLTAFIGPKAEVTDAFPAILPFASEGQGALSRFATLNPVLRMSGGTSGTGLASAAGFIYKPNDVIDWRALYGSVNAAIPGNEGFPGTPLGAGLFNGSFIAATQLTLHPNDKLDLGLNYAYSYHQINIAGTGLTGAETRILGDLPLTTPVRFNSFGATVNWRVSPKVNLTGYGAYIMTDQANSGSAYTNLSSWMAGLYFPDAFAKGNAAGILFGQPLYRVDAGNGASLSPANIGDRQTPYQLEAFYRHQINDHISITPGAFVIFNPEGDAQNETTSVFALRTTYTF,failed
16,MSGSGKTITQMKSTAILAPVIAVILILSACGKPMDAQALVAEAKQYQQQGNDKAAIIQLKNALQQSPNDPEIRYLLGTLYNREGDIQSAEKELNKALDLGMDPVKVLPGLSRAWLGMGKFQQVLDETGKLSDKGNFAELLALRGNASLALGKFEEAKVLFEQALQDKPGFSDALTGLARYSLARNDIESAMNFSEEAVKLNPENSDAVLFRGDLLRAQNKIDEALADYDKAIKLNPESEAAYINRATISISTKKFEAAQADLDAVRKIAPGSLLAAYTQALLDFSQGKHAVALETLQRILSSAPGHLPSVLLAGATQFALGSFPQAGQYVEQYLKAIPNNLYAIKLMASIQLKNNQVKQAITTLTPALKSVQQDPQLFALAGEAYMRSKDFTKASEYFEKAGELAPDNASLYTALAMSKMGQGDSKSAIADLEQAAQLDDQSGRAGVMLVLTHLQLREFDKALKAVESQLAEQPDNPLLHNLKGGIYLGKKDLAKARSSFNQALSIQSDYFPAISNLARIDMQENHPEAAQQRFEDVLKRDKKNVQAMNALAGIALARGNKEEATGWLEKASRENPDELQPALQLGAHYLAVNDPGKSLALAKKLQGIHPDNLSIVELLARSYLATGDKDAALENFQKLAARLPDSAPAQLQLAQIYSSMQNNKAAAGSLKKALTIKPDLWEAKLMQAQLAVAADRVEDAFNISHDLQKQHEKLPVGFELEGDLQMRQKNAAAAATAYEKALSRQKNSQLLIKLHTALSQSGKEKQADQRLNQWLKENPTDAVTRTYLAGVYLASKKYDPAIKEYQTILKQHPDHAATLNNLAWVYQQKKDPVALEYAEKAYKQAPDSPAILDTLGWILIEKGDAERGTSLLQKAVTAVPEAAEIRYHYAVGLFKSGNKAEARQELEKLLGGDKPFPQRDDAKKLLESL,failed
